These results are taken from PMC7194921.

For the data set, the target named is SARS-CoV-2 N-NTD (WT) (SARS-CoV-2, UniProt P0DTC9 41-174). The experiment in a line: SPR.

Take AAGUUCGUUU (ssRNA) [viral RNA derived intergenic sequence]: the Kd was found to be 140 µM.
